Assay results published in US20260158147A1.
pEC50: −log10 of the molar value.

Legend:
aBeta [1] = target: aBeta (UniProt P05067); test: ELISA; commercial
aBeta [2] = target: aBeta (UniProt P05067); test: ELISA

pEC50 (aBeta [1]) | pEC50 (aBeta [2]) | Substance
9.94 |  | Lecanemab (commercial)
 | 9.98 | Lecanemab (unshuttled)
